Data reported in PMC4434323.

Columns and labels:
[1] = biological target: T1, mab-23 (C32C4.5) (Caenorhabditis elegans) (UniProt G5ECK3)
T1 sequence: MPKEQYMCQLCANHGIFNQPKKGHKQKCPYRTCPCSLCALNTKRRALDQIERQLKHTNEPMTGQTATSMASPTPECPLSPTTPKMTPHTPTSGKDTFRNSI

[2] = biological target: T2, Y51H4A.4 (Y51H4A.4) (Caenorhabditis elegans) (UniProt Q9NAE4)
T2 sequence: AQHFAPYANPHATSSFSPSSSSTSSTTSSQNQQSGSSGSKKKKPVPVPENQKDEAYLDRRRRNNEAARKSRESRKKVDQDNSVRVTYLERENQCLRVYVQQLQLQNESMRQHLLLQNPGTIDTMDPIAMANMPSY

[3] = system: scrt-1 (C55C2.1) (Caenorhabditis elegans)
[4] = biological target: T3, K02D7.2 (K02D7.2) (Caenorhabditis elegans) (UniProt O45103)
T3 sequence: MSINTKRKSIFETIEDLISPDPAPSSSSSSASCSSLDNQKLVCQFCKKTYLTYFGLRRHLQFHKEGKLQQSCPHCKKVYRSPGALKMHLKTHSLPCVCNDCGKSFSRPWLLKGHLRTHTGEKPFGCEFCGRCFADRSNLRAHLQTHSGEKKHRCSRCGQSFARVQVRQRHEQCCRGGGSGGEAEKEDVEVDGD

[5] = biological target: T4, tbx-33 (Y66A7A.8) (Caenorhabditis elegans) (UniProt O45291)
T4 sequence: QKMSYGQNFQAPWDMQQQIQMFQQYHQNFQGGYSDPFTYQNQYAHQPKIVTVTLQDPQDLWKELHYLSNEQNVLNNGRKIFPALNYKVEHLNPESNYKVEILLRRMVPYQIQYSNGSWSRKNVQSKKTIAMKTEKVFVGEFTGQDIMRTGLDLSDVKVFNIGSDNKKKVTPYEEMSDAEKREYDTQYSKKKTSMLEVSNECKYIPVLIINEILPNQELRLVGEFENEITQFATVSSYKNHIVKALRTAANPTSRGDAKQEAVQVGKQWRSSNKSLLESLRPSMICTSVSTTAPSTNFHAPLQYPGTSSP

[6] = biological target: T5, Y44A6D.3 (Y44A6D.3) (Caenorhabditis elegans) (UniProt Q9XXE0)
T5 sequence: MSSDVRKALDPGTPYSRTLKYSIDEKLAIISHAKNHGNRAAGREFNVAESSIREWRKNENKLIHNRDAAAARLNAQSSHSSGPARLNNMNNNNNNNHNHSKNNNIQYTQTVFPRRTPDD

[7] = biological target: T6, atf-2 (K08F8.2) (Caenorhabditis elegans) (UniProt Q21361)
T6 sequence: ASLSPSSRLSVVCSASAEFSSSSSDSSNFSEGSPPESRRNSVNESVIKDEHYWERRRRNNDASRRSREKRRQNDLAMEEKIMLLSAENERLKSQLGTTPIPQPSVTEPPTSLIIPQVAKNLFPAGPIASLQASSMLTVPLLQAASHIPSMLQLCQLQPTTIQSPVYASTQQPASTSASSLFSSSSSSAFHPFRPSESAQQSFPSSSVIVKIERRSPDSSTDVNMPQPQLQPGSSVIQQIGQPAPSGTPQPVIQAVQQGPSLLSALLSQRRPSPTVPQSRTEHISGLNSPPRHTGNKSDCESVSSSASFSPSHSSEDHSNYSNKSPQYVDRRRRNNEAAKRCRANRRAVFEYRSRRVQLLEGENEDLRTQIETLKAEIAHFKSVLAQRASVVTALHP

[8] = biological target: T7, nhr-168 (C50B6.8) (Caenorhabditis elegans) (UniProt P91983)
T7 sequence: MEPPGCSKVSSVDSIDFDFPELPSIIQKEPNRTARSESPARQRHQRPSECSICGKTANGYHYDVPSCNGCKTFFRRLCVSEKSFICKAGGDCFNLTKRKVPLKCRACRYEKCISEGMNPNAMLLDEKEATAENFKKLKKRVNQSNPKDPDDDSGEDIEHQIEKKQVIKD

[9] = biological target: T8, T07C12.11 (T07C12.11) (Caenorhabditis elegans) (UniProt G5EGG9)
T8 sequence: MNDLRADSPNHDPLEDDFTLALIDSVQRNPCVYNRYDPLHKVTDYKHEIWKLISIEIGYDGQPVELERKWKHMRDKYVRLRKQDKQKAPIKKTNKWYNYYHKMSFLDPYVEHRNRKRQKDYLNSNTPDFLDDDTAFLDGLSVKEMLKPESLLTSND

[10] = biological target: egl-13 (T22B7.1) (Caenorhabditis elegans) (UniProt Q23045)
[11] = biological target: T9, Y75B8A.6 (Y75B8A.6) (Caenorhabditis elegans) (UniProt A0A168H365)
T9 sequence: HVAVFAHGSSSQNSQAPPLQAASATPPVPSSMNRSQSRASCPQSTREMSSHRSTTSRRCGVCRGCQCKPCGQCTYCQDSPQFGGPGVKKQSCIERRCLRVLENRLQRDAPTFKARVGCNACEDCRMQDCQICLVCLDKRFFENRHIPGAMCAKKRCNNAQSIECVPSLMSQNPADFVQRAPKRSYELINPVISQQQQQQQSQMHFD

[12] = biological target: T10, dmd-6 (F13G11.1) (Caenorhabditis elegans) (UniProt O62159)
T10 sequence: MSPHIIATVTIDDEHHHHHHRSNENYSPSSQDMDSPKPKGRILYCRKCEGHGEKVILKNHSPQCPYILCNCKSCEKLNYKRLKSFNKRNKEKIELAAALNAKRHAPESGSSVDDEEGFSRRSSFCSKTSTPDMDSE

[13] = biological target: T11, Y61A9LA.9 (Y61A9LA.9) (Caenorhabditis elegans) (UniProt Q9N312)
T11 sequence: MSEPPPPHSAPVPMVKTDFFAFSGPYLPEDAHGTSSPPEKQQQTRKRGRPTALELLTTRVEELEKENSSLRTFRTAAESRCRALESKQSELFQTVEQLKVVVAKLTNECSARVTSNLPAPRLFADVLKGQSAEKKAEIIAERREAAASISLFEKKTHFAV

[14] = biological target: T12, F55C5.11 (F55C5.11) (Caenorhabditis elegans) (UniProt Q1ZXU0)
T12 sequence: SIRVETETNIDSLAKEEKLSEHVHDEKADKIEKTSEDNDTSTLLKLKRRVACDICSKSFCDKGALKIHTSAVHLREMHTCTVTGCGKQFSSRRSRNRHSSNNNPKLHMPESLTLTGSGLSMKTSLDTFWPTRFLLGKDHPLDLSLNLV

[15] = biological target: T13, odr-7 (T18D3.2) (Caenorhabditis elegans) (UniProt P41933)
T13 sequence: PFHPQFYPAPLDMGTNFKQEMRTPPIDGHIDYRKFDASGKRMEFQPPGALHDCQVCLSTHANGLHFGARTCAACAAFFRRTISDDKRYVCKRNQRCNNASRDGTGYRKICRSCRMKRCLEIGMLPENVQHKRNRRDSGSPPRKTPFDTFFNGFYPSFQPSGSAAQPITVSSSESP

egl-13 (T22B7.1) (Caenorhabditis elegans), sequence (Q23045 279-447): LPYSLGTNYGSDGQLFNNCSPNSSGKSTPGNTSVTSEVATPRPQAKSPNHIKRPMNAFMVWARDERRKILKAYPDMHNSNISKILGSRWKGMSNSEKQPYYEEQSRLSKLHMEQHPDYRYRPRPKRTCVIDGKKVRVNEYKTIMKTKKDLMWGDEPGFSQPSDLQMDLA
scrt-1 (C55C2.1) (Caenorhabditis elegans), sequence (chain, as listed by the source): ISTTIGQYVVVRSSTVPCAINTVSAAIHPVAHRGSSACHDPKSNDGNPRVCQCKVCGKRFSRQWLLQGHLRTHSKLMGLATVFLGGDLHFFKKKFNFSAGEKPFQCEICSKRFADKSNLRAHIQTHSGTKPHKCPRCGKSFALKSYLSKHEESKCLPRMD

AAAATTTC (double strand) [8-mer AAAATTTC]
binding signal (PBM E-score (-0.5 to 0.5)) [1]: 0.47

TTATATAA (double strand) [8-mer TTATATAA]
binding signal (PBM E-score (-0.5 to 0.5)) [2]: 0.451

AAACCACT (double strand) [8-mer AAACCACT]
binding signal (PBM E-score (-0.5 to 0.5)) [3]: 0.453

ACAGGTGG (double strand) [8-mer ACAGGTGG]
binding signal (PBM E-score (-0.5 to 0.5)) [4]: 0.467

ATCTTCAC (double strand) [8-mer ATCTTCAC]
binding signal (PBM E-score (-0.5 to 0.5)) [5]: 0.488

GTTGCGCA (double strand) [8-mer GTTGCGCA]
binding signal (PBM E-score (-0.5 to 0.5)) [6]: 0.493 | binding signal (PBM E-score (-0.5 to 0.5)) [7]: 0.452

GTACAAAA (double strand) [8-mer GTACAAAA]
binding signal (PBM E-score (-0.5 to 0.5)) [8]: 0.46

CAACCACC (double strand) [8-mer CAACCACC]
binding signal (PBM E-score (-0.5 to 0.5)) [3]: 0.483

CACCTGTC (double strand) [8-mer CACCTGTC]
binding signal (PBM E-score (-0.5 to 0.5)) [4]: 0.456

AGTGGTTG (double strand) [8-mer AGTGGTTG]
binding signal (PBM E-score (-0.5 to 0.5)) [3]: 0.492

AAATTATT (double strand) [8-mer AAATTATT]
binding signal (PBM E-score (-0.5 to 0.5)) [1]: 0.454

AATGTTCT (double strand) [8-mer AATGTTCT]
binding signal (PBM E-score (-0.5 to 0.5)) [8]: 0.482

ATTACGTA (double strand) [8-mer ATTACGTA]
binding signal (PBM E-score (-0.5 to 0.5)) [2]: 0.459 | binding signal (PBM E-score (-0.5 to 0.5)) [9]: 0.485

ACAGGTGC (double strand) [8-mer ACAGGTGC]
binding signal (PBM E-score (-0.5 to 0.5)) [4]: 0.477

AATGATCT (double strand) [8-mer AATGATCT]
binding signal (PBM E-score (-0.5 to 0.5)) [8]: 0.45

TAACAATA (double strand) [8-mer TAACAATA]
binding signal (PBM E-score (-0.5 to 0.5)) [10]: 0.464

AGAACAAT (double strand) [8-mer AGAACAAT]
binding signal (PBM E-score (-0.5 to 0.5)) [10]: 0.469

AACAATAA (double strand) [8-mer AACAATAA]
binding signal (PBM E-score (-0.5 to 0.5)) [10]: 0.462

AACCACTA (double strand) [8-mer AACCACTA]
binding signal (PBM E-score (-0.5 to 0.5)) [3]: 0.46

TTGCGCAA (double strand) [8-mer TTGCGCAA]
binding signal (PBM E-score (-0.5 to 0.5)) [11]: 0.462 | binding signal (PBM E-score (-0.5 to 0.5)) [7]: 0.498 | binding signal (PBM E-score (-0.5 to 0.5)) [9]: 0.493

AAATGTTC (double strand) [8-mer AAATGTTC]
binding signal (PBM E-score (-0.5 to 0.5)) [8]: 0.487 | binding signal (PBM E-score (-0.5 to 0.5)) [12]: 0.469

AAATATTA (double strand) [8-mer AAATATTA]
binding signal (PBM E-score (-0.5 to 0.5)) [12]: 0.481 | binding signal (PBM E-score (-0.5 to 0.5)) [13]: 0.456 | binding signal (PBM E-score (-0.5 to 0.5)) [1]: 0.459

ATCGTCAC (double strand) [8-mer ATCGTCAC]
binding signal (PBM E-score (-0.5 to 0.5)) [5]: 0.487

AGCAGGTG (double strand) [8-mer AGCAGGTG]
binding signal (PBM E-score (-0.5 to 0.5)) [4]: 0.457

ATTGTCAC (double strand) [8-mer ATTGTCAC]
binding signal (PBM E-score (-0.5 to 0.5)) [14]: 0.486 | binding signal (PBM E-score (-0.5 to 0.5)) [5]: 0.47

TGGCGCAA (double strand) [8-mer TGGCGCAA]
binding signal (PBM E-score (-0.5 to 0.5)) [7]: 0.461

ATCTCCAG (double strand) [8-mer ATCTCCAG]
binding signal (PBM E-score (-0.5 to 0.5)) [5]: 0.474

AAAATGTT (double strand) [8-mer AAAATGTT]
binding signal (PBM E-score (-0.5 to 0.5)) [8]: 0.458 | binding signal (PBM E-score (-0.5 to 0.5)) [12]: 0.475

AATTTTTA (double strand) [8-mer AATTTTTA]
binding signal (PBM E-score (-0.5 to 0.5)) [1]: 0.453

AACAATAG (double strand) [8-mer AACAATAG]
binding signal (PBM E-score (-0.5 to 0.5)) [10]: 0.485

ATCACCAC (double strand) [8-mer ATCACCAC]
binding signal (PBM E-score (-0.5 to 0.5)) [5]: 0.459

ATGTTCTC (double strand) [8-mer ATGTTCTC]
binding signal (PBM E-score (-0.5 to 0.5)) [8]: 0.465

CACCTGTA (double strand) [8-mer CACCTGTA]
binding signal (PBM E-score (-0.5 to 0.5)) [4]: 0.457

TTACATAA (double strand) [8-mer TTACATAA]
binding signal (PBM E-score (-0.5 to 0.5)) [2]: 0.489

ATCTCCAC (double strand) [8-mer ATCTCCAC]
binding signal (PBM E-score (-0.5 to 0.5)) [5]: 0.485

AACCACTT (double strand) [8-mer AACCACTT]
binding signal (PBM E-score (-0.5 to 0.5)) [3]: 0.476

ACACCTGT (double strand) [8-mer ACACCTGT]
binding signal (PBM E-score (-0.5 to 0.5)) [4]: 0.468

ACGTAATA (double strand) [8-mer ACGTAATA]
binding signal (PBM E-score (-0.5 to 0.5)) [2]: 0.472

TTACGCAA (double strand) [8-mer TTACGCAA]
binding signal (PBM E-score (-0.5 to 0.5)) [2]: 0.487 | binding signal (PBM E-score (-0.5 to 0.5)) [7]: 0.483 | binding signal (PBM E-score (-0.5 to 0.5)) [9]: 0.494

ATCGCCAC (double strand) [8-mer ATCGCCAC]
binding signal (PBM E-score (-0.5 to 0.5)) [5]: 0.49

AACCACTG (double strand) [8-mer AACCACTG]
binding signal (PBM E-score (-0.5 to 0.5)) [3]: 0.475

AAAATTTT (double strand) [8-mer AAAATTTT]
binding signal (PBM E-score (-0.5 to 0.5)) [12]: 0.481 | binding signal (PBM E-score (-0.5 to 0.5)) [1]: 0.469

TGGCGTAA (double strand) [8-mer TGGCGTAA]
binding signal (PBM E-score (-0.5 to 0.5)) [7]: 0.452

ATCGCCAG (double strand) [8-mer ATCGCCAG]
binding signal (PBM E-score (-0.5 to 0.5)) [5]: 0.473

AAACAATA (double strand) [8-mer AAACAATA]
binding signal (PBM E-score (-0.5 to 0.5)) [10]: 0.469

ACAACCAC (double strand) [8-mer ACAACCAC]
binding signal (PBM E-score (-0.5 to 0.5)) [3]: 0.472

AGTACAAA (double strand) [8-mer AGTACAAA]
binding signal (PBM E-score (-0.5 to 0.5)) [8]: 0.456 | binding signal (PBM E-score (-0.5 to 0.5)) [15]: 0.451

AACCACCT (double strand) [8-mer AACCACCT]
binding signal (PBM E-score (-0.5 to 0.5)) [3]: 0.464

AAAAATTT (double strand) [8-mer AAAAATTT]
binding signal (PBM E-score (-0.5 to 0.5)) [12]: 0.481 | binding signal (PBM E-score (-0.5 to 0.5)) [1]: 0.478

AAAATATT (double strand) [8-mer AAAATATT]
binding signal (PBM E-score (-0.5 to 0.5)) [12]: 0.485 | binding signal (PBM E-score (-0.5 to 0.5)) [13]: 0.451 | binding signal (PBM E-score (-0.5 to 0.5)) [1]: 0.469
